Consider one variant from IntAct's records for PubMed 16959570.

The labels stand for the following.
B1: FK506-binding protein 4 (Saccharomyces cerevisiae), Q06205 (parent)
chain: MSDMLPLATYSLNVEPYSPTPALNFKIPVTIRITMAAIDPEPFDDDKKPSTLRIIKRNPELTRGEYYNQDNNDGLEEDESESEQEADVPKRSVKSKKGKAVEQSESEDSEDENEIDDEFEECVLLTLSPKGQYQQALDITIAPEEDVQFVVTGSYTISLTGNYVKHPFDNSSDSDEDEEDYYSDEESSNGEEEEEEEEEDDEELSSGDDDLDDLVDASDIESRLDELVKKDEKKKNNKKDSKRKHEEDEEESAKPAEKKQTTKKDKKAEKVKDSEESKPKPKTKLLEGGIIIEDRVTGKGPHAKKGTRVGMRYVGKLKNGKVFDKNTKGKPFVFKLGQGEVIKGWDIGVAGMAVGGERRIVIPAPYAYGKQALPGIPANSELTFDVKLVSMK

Variants of B1 are the subject of the assay. To be noted: with h3_yeast HHT1, P61830.
For MSDMLPLATYSLNVEPYSPTPALNFKIPVTIRITMAAIDPEPFDDDKKPSTLRIIKRNPELTRGEYYNQDNNDGLEEDESESEQEADVPKRSVKSKKGKAVEQSESEDSEDENEIDDEFEECVLLTLSPKGQYQQALDITIAPEEDVQFVVTGSYTISLTGNYVKHPFDNSSDSDEDEEDYYSDEESSNGEEEEEEEEEDDEELSSGDDDLDDLVDASDIESRLDELVKKDEKKKNNKKDSKRKHEEDEEESAKPAEKKQTTKKDKKAEKVKDSEESKPKPKTKLLEGGIIIEDRVTGKGPHAKKGTRVGMRYVGKLKNGKVADKNTKGKPFVFKLGQGEVIKGWDIGVAGMAVGGERRIVIPAPYAYGKQALPGIPANSELTFDVKLVSMK [F323A], the “effect of a mutation on the interaction” value was “disrupting interaction”.
